In IntAct's records for PubMed 35512704:

B1: Speckle-type POZ protein (Homo sapiens), O43791 (parent)
chain: MSRVPSPPPPAEMSSGPVAESWCYTQIKVVKFSYMWTINNFSFCREEMGEVIKSSTFSSGANDKLKWCLRVNPKGLDEESKDYLSLYLLLVSCPKSEVRAKFKFSILNAKGEETKAMESQRAYRFVQGKDWGFKKFIRRDFLLDEANGLLPDDKLTLFCEVSVVQDSVNISGQNTMNMVKVPECRLADELGGLWENSRFTDCCLCVAGQEFQAHKAILAARSPVFSAMFEHEMEESKKNRVEINDVEPEVFKEMMCFIYTGKAPNLDKMADDLLAAADKYALERLKVMCEDALCSNLSVENAAEILILADLHSADQLKTQAVDFINYHASDVLETSGWKSMVVSHPHLVAEAYRSLASAQCPFLGPPRKRLKQS

Variants of: B1
Conditions: with brd4_human BRD4, O60885

effect of a mutation on the interaction	Variant
disrupting interaction strength	MSRVPSPPPPAEMSSGPVAESWCYTQIKVVKFSYMWTINNFSFCREEMGEVIKSSTFSSGANDKLKWCLRVNPKGLDEESKDYLSLCLLLVSCPKSEVRAKFKFSILNAKGEETKAMESQRAYRFVQGKDWGFKKFIRRDFLLDEANGLLPDDKLTLFCEVSVVQDSVNISGQNTMNMVKVPECRLADELGGLWENSRFTDCCLCVAGQEFQAHKAILAARSPVFSAMFEHEMEESKKNRVEINDVEPEVFKEMMCFIYTGKAPNLDKMADDLLAAADKYALERLKVMCEDALCSNLSVENAAEILILADLHSADQLKTQAVDFINYHASDVLETSGWKSMVVSHPHLVAEAYRSLASAQCPFLGPPRKRLKQS [Y87C]

Variants of: B1
Conditions: with ncoa3_human NCOA3, Q9Y6Q9
Sequence of ncoa3_human NCOA3, Q9Y6Q9 (Q9Y6Q9 whole entry, looked up): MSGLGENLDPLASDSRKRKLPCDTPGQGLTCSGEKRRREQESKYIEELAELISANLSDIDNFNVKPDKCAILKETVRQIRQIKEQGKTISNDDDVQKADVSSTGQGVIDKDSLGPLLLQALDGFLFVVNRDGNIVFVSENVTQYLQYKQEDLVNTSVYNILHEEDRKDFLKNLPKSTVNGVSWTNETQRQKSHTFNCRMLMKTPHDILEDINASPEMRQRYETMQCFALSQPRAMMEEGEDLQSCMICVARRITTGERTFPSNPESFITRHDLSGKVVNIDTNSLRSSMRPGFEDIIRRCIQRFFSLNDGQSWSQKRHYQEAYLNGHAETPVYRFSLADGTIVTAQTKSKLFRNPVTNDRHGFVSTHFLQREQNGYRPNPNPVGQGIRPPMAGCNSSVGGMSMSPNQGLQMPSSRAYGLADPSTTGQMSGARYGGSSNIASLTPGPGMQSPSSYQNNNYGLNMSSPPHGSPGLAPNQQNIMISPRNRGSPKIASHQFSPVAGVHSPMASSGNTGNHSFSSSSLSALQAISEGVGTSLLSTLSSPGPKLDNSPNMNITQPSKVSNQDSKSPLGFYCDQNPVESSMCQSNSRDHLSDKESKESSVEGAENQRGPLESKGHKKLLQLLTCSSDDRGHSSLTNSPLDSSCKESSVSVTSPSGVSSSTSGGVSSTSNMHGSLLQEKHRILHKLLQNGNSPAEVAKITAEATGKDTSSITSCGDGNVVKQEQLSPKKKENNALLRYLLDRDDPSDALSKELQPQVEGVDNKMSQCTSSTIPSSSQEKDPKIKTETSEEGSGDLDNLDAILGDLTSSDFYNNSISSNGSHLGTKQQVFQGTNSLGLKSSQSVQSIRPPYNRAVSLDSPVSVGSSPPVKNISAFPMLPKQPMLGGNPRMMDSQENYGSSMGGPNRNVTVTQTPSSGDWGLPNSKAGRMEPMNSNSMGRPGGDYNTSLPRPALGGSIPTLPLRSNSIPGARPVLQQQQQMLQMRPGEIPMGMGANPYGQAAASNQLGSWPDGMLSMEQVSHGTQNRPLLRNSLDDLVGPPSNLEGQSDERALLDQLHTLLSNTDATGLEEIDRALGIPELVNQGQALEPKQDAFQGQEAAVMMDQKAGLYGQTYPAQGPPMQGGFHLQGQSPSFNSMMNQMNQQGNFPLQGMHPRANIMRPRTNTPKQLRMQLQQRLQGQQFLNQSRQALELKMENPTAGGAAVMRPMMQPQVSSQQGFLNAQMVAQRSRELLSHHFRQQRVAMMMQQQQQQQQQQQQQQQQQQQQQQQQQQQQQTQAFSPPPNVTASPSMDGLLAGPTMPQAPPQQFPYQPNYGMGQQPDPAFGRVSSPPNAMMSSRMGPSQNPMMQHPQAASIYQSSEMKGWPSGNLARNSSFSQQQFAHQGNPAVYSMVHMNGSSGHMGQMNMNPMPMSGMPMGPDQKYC

effect of a mutation on the interaction	Variant
disrupting interaction strength	MSRVPSPPPPAEMSSGPVAESWCYTQIKVVKFSYMWTINNFSFCREEMGEVIKSSTFSSGANDKLKWCLRVNPKGLDEESKDYLSLCLLLVSCPKSEVRAKFKFSILNAKGEETKAMESQRAYRFVQGKDWGFKKFIRRDFLLDEANGLLPDDKLTLFCEVSVVQDSVNISGQNTMNMVKVPECRLADELGGLWENSRFTDCCLCVAGQEFQAHKAILAARSPVFSAMFEHEMEESKKNRVEINDVEPEVFKEMMCFIYTGKAPNLDKMADDLLAAADKYALERLKVMCEDALCSNLSVENAAEILILADLHSADQLKTQAVDFINYHASDVLETSGWKSMVVSHPHLVAEAYRSLASAQCPFLGPPRKRLKQS [Y87C]

Variants of: B1
Conditions: with jun_human JUN

effect of a mutation on the interaction	Variant
disrupting interaction strength	MSRVPSPPPPAEMSSGPVAESWCYTQIKVVKFSYMWTINNFSFCREEMGEVIKSSTFSSGANDKLKWCLRVNPKGLDEESKDYLSLCLLLVSCPKSEVRAKFKFSILNAKGEETKAMESQRAYRFVQGKDWGFKKFIRRDFLLDEANGLLPDDKLTLFCEVSVVQDSVNISGQNTMNMVKVPECRLADELGGLWENSRFTDCCLCVAGQEFQAHKAILAARSPVFSAMFEHEMEESKKNRVEINDVEPEVFKEMMCFIYTGKAPNLDKMADDLLAAADKYALERLKVMCEDALCSNLSVENAAEILILADLHSADQLKTQAVDFINYHASDVLETSGWKSMVVSHPHLVAEAYRSLASAQCPFLGPPRKRLKQS [Y87C]

Variants of: B1
Conditions: with akt1_human AKT1, P31749
Sequence of akt1_human AKT1, P31749 (P31749 whole entry): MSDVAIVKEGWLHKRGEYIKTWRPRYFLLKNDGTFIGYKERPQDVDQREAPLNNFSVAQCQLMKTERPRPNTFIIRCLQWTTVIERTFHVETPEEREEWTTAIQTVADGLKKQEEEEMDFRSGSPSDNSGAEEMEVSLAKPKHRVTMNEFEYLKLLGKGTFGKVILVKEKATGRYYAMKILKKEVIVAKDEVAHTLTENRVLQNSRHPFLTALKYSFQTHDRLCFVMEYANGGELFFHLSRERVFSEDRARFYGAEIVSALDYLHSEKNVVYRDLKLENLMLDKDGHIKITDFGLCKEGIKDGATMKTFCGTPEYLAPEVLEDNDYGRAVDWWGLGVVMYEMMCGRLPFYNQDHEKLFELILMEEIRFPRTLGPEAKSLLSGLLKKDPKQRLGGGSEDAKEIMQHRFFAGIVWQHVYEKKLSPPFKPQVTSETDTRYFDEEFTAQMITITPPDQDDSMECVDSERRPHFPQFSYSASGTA

effect of a mutation on the interaction	Variant
with no effect	MSRVPSPPPPAEMSSGPVAESWCYTQIKVVKFSYMWTINNFSFCREEMGEVIKSSTFSSGANDKLKWCLRVNPKGLDEESKDYLSLCLLLVSCPKSEVRAKFKFSILNAKGEETKAMESQRAYRFVQGKDWGFKKFIRRDFLLDEANGLLPDDKLTLFCEVSVVQDSVNISGQNTMNMVKVPECRLADELGGLWENSRFTDCCLCVAGQEFQAHKAILAARSPVFSAMFEHEMEESKKNRVEINDVEPEVFKEMMCFIYTGKAPNLDKMADDLLAAADKYALERLKVMCEDALCSNLSVENAAEILILADLHSADQLKTQAVDFINYHASDVLETSGWKSMVVSHPHLVAEAYRSLASAQCPFLGPPRKRLKQS [Y87C]

Variants of: B1
Conditions: with alk_human ALK

effect of a mutation on the interaction	Variant
with no effect	MSRVPSPPPPAEMSSGPVAESWCYTQIKVVKFSYMWTINNFSFCREEMGEVIKSSTFSSGANDKLKWCLRVNPKGLDEESKDYLSLCLLLVSCPKSEVRAKFKFSILNAKGEETKAMESQRAYRFVQGKDWGFKKFIRRDFLLDEANGLLPDDKLTLFCEVSVVQDSVNISGQNTMNMVKVPECRLADELGGLWENSRFTDCCLCVAGQEFQAHKAILAARSPVFSAMFEHEMEESKKNRVEINDVEPEVFKEMMCFIYTGKAPNLDKMADDLLAAADKYALERLKVMCEDALCSNLSVENAAEILILADLHSADQLKTQAVDFINYHASDVLETSGWKSMVVSHPHLVAEAYRSLASAQCPFLGPPRKRLKQS [Y87C]

Variants of: B1
Conditions: with aph1a_human APH1A

effect of a mutation on the interaction	Variant
with no effect	MSRVPSPPPPAEMSSGPVAESWCYTQIKVVKFSYMWTINNFSFCREEMGEVIKSSTFSSGANDKLKWCLRVNPKGLDEESKDYLSLCLLLVSCPKSEVRAKFKFSILNAKGEETKAMESQRAYRFVQGKDWGFKKFIRRDFLLDEANGLLPDDKLTLFCEVSVVQDSVNISGQNTMNMVKVPECRLADELGGLWENSRFTDCCLCVAGQEFQAHKAILAARSPVFSAMFEHEMEESKKNRVEINDVEPEVFKEMMCFIYTGKAPNLDKMADDLLAAADKYALERLKVMCEDALCSNLSVENAAEILILADLHSADQLKTQAVDFINYHASDVLETSGWKSMVVSHPHLVAEAYRSLASAQCPFLGPPRKRLKQS [Y87C]

Variants of: B1
Conditions: with arnt_human ARNT

effect of a mutation on the interaction	Variant
with no effect	MSRVPSPPPPAEMSSGPVAESWCYTQIKVVKFSYMWTINNFSFCREEMGEVIKSSTFSSGANDKLKWCLRVNPKGLDEESKDYLSLCLLLVSCPKSEVRAKFKFSILNAKGEETKAMESQRAYRFVQGKDWGFKKFIRRDFLLDEANGLLPDDKLTLFCEVSVVQDSVNISGQNTMNMVKVPECRLADELGGLWENSRFTDCCLCVAGQEFQAHKAILAARSPVFSAMFEHEMEESKKNRVEINDVEPEVFKEMMCFIYTGKAPNLDKMADDLLAAADKYALERLKVMCEDALCSNLSVENAAEILILADLHSADQLKTQAVDFINYHASDVLETSGWKSMVVSHPHLVAEAYRSLASAQCPFLGPPRKRLKQS [Y87C]

Variants of: B1
Conditions: with arc1a_human ARPC1A

effect of a mutation on the interaction	Variant
with no effect	MSRVPSPPPPAEMSSGPVAESWCYTQIKVVKFSYMWTINNFSFCREEMGEVIKSSTFSSGANDKLKWCLRVNPKGLDEESKDYLSLCLLLVSCPKSEVRAKFKFSILNAKGEETKAMESQRAYRFVQGKDWGFKKFIRRDFLLDEANGLLPDDKLTLFCEVSVVQDSVNISGQNTMNMVKVPECRLADELGGLWENSRFTDCCLCVAGQEFQAHKAILAARSPVFSAMFEHEMEESKKNRVEINDVEPEVFKEMMCFIYTGKAPNLDKMADDLLAAADKYALERLKVMCEDALCSNLSVENAAEILILADLHSADQLKTQAVDFINYHASDVLETSGWKSMVVSHPHLVAEAYRSLASAQCPFLGPPRKRLKQS [Y87C]

Variants of: B1
Conditions: with asxl2_human ASXL2, Q76L83
Sequence of asxl2_human ASXL2, Q76L83 (Q76L83 whole entry): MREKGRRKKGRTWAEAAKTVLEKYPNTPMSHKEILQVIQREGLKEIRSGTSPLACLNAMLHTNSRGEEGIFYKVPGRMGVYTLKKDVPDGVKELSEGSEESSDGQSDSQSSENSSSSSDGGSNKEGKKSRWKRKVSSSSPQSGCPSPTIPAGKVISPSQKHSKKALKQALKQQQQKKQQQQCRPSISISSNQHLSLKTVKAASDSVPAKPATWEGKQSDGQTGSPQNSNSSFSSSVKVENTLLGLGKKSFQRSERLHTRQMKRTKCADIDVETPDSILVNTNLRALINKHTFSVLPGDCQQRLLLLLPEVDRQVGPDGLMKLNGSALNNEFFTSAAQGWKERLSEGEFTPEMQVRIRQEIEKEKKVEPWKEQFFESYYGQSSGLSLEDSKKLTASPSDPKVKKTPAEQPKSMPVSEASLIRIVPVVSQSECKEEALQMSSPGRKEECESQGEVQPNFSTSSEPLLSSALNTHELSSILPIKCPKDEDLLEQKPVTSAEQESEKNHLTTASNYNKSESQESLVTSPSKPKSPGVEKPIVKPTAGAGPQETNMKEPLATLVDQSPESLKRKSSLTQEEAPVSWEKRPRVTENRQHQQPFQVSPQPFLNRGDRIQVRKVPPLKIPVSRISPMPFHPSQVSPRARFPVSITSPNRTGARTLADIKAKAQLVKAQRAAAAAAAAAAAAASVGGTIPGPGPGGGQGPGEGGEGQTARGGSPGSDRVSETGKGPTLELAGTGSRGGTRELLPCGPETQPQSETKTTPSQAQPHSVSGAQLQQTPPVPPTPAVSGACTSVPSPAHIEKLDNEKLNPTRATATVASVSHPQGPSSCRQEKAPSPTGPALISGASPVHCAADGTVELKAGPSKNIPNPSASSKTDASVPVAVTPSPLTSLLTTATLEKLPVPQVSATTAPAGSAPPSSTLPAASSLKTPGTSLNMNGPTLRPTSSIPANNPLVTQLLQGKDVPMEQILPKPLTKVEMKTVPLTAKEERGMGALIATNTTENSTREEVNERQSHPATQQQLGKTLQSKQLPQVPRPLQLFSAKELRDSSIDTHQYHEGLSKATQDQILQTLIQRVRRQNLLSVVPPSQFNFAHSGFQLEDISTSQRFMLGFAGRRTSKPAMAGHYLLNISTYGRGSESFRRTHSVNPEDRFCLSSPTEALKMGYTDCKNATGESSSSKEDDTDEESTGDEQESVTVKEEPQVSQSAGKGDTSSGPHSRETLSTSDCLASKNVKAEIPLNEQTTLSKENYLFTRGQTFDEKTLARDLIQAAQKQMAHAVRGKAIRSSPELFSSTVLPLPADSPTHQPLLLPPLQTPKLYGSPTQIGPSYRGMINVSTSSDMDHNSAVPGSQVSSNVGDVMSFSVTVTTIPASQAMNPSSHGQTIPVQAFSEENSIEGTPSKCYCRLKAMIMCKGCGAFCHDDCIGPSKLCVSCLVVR

effect of a mutation on the interaction	Variant
with no effect	MSRVPSPPPPAEMSSGPVAESWCYTQIKVVKFSYMWTINNFSFCREEMGEVIKSSTFSSGANDKLKWCLRVNPKGLDEESKDYLSLCLLLVSCPKSEVRAKFKFSILNAKGEETKAMESQRAYRFVQGKDWGFKKFIRRDFLLDEANGLLPDDKLTLFCEVSVVQDSVNISGQNTMNMVKVPECRLADELGGLWENSRFTDCCLCVAGQEFQAHKAILAARSPVFSAMFEHEMEESKKNRVEINDVEPEVFKEMMCFIYTGKAPNLDKMADDLLAAADKYALERLKVMCEDALCSNLSVENAAEILILADLHSADQLKTQAVDFINYHASDVLETSGWKSMVVSHPHLVAEAYRSLASAQCPFLGPPRKRLKQS [Y87C]

Variants of: B1
Conditions: with bakor_human ATG14, Q6ZNE5
Sequence of bakor_human ATG14, Q6ZNE5 (Q6ZNE5 whole entry): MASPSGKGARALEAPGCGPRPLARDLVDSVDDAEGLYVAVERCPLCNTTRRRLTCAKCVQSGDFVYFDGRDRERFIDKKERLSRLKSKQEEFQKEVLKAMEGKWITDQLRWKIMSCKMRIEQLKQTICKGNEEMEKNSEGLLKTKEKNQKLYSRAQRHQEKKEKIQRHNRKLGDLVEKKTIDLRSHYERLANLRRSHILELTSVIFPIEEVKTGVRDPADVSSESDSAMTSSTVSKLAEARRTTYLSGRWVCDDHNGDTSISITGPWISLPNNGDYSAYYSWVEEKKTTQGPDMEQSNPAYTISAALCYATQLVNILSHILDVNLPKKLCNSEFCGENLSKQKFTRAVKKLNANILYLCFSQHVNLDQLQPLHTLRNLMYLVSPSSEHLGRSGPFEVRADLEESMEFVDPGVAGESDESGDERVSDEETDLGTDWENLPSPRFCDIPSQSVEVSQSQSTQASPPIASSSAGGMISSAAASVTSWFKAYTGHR

effect of a mutation on the interaction	Variant
with no effect	MSRVPSPPPPAEMSSGPVAESWCYTQIKVVKFSYMWTINNFSFCREEMGEVIKSSTFSSGANDKLKWCLRVNPKGLDEESKDYLSLCLLLVSCPKSEVRAKFKFSILNAKGEETKAMESQRAYRFVQGKDWGFKKFIRRDFLLDEANGLLPDDKLTLFCEVSVVQDSVNISGQNTMNMVKVPECRLADELGGLWENSRFTDCCLCVAGQEFQAHKAILAARSPVFSAMFEHEMEESKKNRVEINDVEPEVFKEMMCFIYTGKAPNLDKMADDLLAAADKYALERLKVMCEDALCSNLSVENAAEILILADLHSADQLKTQAVDFINYHASDVLETSGWKSMVVSHPHLVAEAYRSLASAQCPFLGPPRKRLKQS [Y87C]

Variants of: B1
Conditions: with atm_human ATM

effect of a mutation on the interaction	Variant
with no effect	MSRVPSPPPPAEMSSGPVAESWCYTQIKVVKFSYMWTINNFSFCREEMGEVIKSSTFSSGANDKLKWCLRVNPKGLDEESKDYLSLCLLLVSCPKSEVRAKFKFSILNAKGEETKAMESQRAYRFVQGKDWGFKKFIRRDFLLDEANGLLPDDKLTLFCEVSVVQDSVNISGQNTMNMVKVPECRLADELGGLWENSRFTDCCLCVAGQEFQAHKAILAARSPVFSAMFEHEMEESKKNRVEINDVEPEVFKEMMCFIYTGKAPNLDKMADDLLAAADKYALERLKVMCEDALCSNLSVENAAEILILADLHSADQLKTQAVDFINYHASDVLETSGWKSMVVSHPHLVAEAYRSLASAQCPFLGPPRKRLKQS [Y87C]

Variants of: B1
Conditions: with atpb_human ATP5F1B

effect of a mutation on the interaction	Variant
with no effect	MSRVPSPPPPAEMSSGPVAESWCYTQIKVVKFSYMWTINNFSFCREEMGEVIKSSTFSSGANDKLKWCLRVNPKGLDEESKDYLSLCLLLVSCPKSEVRAKFKFSILNAKGEETKAMESQRAYRFVQGKDWGFKKFIRRDFLLDEANGLLPDDKLTLFCEVSVVQDSVNISGQNTMNMVKVPECRLADELGGLWENSRFTDCCLCVAGQEFQAHKAILAARSPVFSAMFEHEMEESKKNRVEINDVEPEVFKEMMCFIYTGKAPNLDKMADDLLAAADKYALERLKVMCEDALCSNLSVENAAEILILADLHSADQLKTQAVDFINYHASDVLETSGWKSMVVSHPHLVAEAYRSLASAQCPFLGPPRKRLKQS [Y87C]

Variants of: B1
Conditions: with aurkb_human AURKB

effect of a mutation on the interaction	Variant
with no effect	MSRVPSPPPPAEMSSGPVAESWCYTQIKVVKFSYMWTINNFSFCREEMGEVIKSSTFSSGANDKLKWCLRVNPKGLDEESKDYLSLCLLLVSCPKSEVRAKFKFSILNAKGEETKAMESQRAYRFVQGKDWGFKKFIRRDFLLDEANGLLPDDKLTLFCEVSVVQDSVNISGQNTMNMVKVPECRLADELGGLWENSRFTDCCLCVAGQEFQAHKAILAARSPVFSAMFEHEMEESKKNRVEINDVEPEVFKEMMCFIYTGKAPNLDKMADDLLAAADKYALERLKVMCEDALCSNLSVENAAEILILADLHSADQLKTQAVDFINYHASDVLETSGWKSMVVSHPHLVAEAYRSLASAQCPFLGPPRKRLKQS [Y87C]

Variants of: B1
Conditions: with axin2_human AXIN2, Q9Y2T1
Sequence of axin2_human AXIN2, Q9Y2T1 (Q9Y2T1 whole entry): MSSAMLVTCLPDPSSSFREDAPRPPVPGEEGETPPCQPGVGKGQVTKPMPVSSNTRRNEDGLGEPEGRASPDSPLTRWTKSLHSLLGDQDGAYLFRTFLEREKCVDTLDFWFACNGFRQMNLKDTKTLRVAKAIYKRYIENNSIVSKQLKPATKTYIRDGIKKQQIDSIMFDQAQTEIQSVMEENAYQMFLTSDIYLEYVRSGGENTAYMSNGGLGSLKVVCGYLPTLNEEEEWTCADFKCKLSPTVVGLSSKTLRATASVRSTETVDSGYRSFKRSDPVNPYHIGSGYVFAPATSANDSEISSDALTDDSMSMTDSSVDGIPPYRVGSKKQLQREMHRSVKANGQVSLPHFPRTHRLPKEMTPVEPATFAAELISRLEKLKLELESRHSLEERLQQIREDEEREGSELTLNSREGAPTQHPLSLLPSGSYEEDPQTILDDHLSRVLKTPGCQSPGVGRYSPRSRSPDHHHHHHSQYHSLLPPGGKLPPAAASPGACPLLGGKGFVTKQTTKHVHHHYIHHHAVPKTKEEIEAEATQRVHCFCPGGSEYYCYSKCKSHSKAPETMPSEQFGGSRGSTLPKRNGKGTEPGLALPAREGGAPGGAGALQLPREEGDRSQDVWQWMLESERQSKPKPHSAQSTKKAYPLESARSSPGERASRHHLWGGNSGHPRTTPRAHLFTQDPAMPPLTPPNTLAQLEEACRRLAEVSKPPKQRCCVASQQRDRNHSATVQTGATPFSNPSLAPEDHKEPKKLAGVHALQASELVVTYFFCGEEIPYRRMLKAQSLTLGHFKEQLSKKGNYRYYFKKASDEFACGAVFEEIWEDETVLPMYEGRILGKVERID

effect of a mutation on the interaction	Variant
with no effect	MSRVPSPPPPAEMSSGPVAESWCYTQIKVVKFSYMWTINNFSFCREEMGEVIKSSTFSSGANDKLKWCLRVNPKGLDEESKDYLSLCLLLVSCPKSEVRAKFKFSILNAKGEETKAMESQRAYRFVQGKDWGFKKFIRRDFLLDEANGLLPDDKLTLFCEVSVVQDSVNISGQNTMNMVKVPECRLADELGGLWENSRFTDCCLCVAGQEFQAHKAILAARSPVFSAMFEHEMEESKKNRVEINDVEPEVFKEMMCFIYTGKAPNLDKMADDLLAAADKYALERLKVMCEDALCSNLSVENAAEILILADLHSADQLKTQAVDFINYHASDVLETSGWKSMVVSHPHLVAEAYRSLASAQCPFLGPPRKRLKQS [Y87C]

Variants of: B1
Conditions: with ufo_human AXL

effect of a mutation on the interaction	Variant
with no effect	MSRVPSPPPPAEMSSGPVAESWCYTQIKVVKFSYMWTINNFSFCREEMGEVIKSSTFSSGANDKLKWCLRVNPKGLDEESKDYLSLCLLLVSCPKSEVRAKFKFSILNAKGEETKAMESQRAYRFVQGKDWGFKKFIRRDFLLDEANGLLPDDKLTLFCEVSVVQDSVNISGQNTMNMVKVPECRLADELGGLWENSRFTDCCLCVAGQEFQAHKAILAARSPVFSAMFEHEMEESKKNRVEINDVEPEVFKEMMCFIYTGKAPNLDKMADDLLAAADKYALERLKVMCEDALCSNLSVENAAEILILADLHSADQLKTQAVDFINYHASDVLETSGWKSMVVSHPHLVAEAYRSLASAQCPFLGPPRKRLKQS [Y87C]
